Test results as given in patent US20060148057A1, “Thioredoxin mutants and uses thereof” (priority 2002, published 2006).

How the values were obtained:
ASK1 [1] = molecular target: T1, ASK1 (Homo sapiens, UniProt Q99683); assay: GST-Trx pull-down assay; format: binding; details: for ASK1 bound to GST-Trx: in the presence of 1 mM DTT; for association of GST-Trx with ASK1: in the presence of 1 mM H2O2
T1 construct: wild type ASK1 (ASK1-WT, aa 1-1375); expressed in transfected cells; host or cells: BAEC
T1 sequence (Q99683 1-1374): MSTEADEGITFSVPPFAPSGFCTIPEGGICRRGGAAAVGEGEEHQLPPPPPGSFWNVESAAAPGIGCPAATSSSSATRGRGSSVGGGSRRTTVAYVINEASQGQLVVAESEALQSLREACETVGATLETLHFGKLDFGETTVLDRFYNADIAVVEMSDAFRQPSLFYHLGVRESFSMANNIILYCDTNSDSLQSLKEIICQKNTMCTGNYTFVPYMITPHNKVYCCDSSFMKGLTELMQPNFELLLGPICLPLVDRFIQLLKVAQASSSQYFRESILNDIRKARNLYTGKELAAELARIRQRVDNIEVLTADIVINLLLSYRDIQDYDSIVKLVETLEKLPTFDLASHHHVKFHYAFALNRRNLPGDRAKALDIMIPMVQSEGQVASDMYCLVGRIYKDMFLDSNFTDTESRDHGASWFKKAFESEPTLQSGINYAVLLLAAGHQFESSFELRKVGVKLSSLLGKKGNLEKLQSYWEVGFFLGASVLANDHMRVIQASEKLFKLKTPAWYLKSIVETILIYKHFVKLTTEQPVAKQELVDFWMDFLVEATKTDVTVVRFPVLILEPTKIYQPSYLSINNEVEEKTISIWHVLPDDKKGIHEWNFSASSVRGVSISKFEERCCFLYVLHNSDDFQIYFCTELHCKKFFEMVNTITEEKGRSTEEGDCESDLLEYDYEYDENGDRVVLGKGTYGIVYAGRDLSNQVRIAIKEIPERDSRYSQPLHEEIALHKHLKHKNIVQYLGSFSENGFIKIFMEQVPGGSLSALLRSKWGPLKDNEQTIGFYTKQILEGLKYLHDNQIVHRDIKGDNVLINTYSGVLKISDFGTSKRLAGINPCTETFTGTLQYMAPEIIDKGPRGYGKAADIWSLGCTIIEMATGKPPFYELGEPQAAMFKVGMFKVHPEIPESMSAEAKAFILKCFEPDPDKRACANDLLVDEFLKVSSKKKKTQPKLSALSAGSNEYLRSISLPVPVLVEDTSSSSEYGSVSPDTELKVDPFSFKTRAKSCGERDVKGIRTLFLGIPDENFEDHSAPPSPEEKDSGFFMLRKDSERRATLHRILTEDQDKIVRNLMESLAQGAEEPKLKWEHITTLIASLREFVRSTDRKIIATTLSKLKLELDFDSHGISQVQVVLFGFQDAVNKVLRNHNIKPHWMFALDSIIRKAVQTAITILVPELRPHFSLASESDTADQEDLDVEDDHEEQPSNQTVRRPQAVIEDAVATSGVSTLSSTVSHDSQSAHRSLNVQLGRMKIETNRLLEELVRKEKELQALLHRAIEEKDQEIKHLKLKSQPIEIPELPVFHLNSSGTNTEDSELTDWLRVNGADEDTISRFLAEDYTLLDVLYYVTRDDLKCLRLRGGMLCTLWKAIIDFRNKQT
Protocol: GST-Trx pull-down assay: GST fusion protein preparation and GST pull-down assay were performed as described previously. […] Briefly, GST-Trx fusion proteins expressed in Escherichia coli XL-1 blue were affinity purified on glutathione-Sepharose beads (Pharmacia). 400 μg of cell lysates expressing HA-tagged ASK1 were incubated with 10 μg of GST-Trx bound to glutathione-Sepharose in the lysis buffer containing either 1 mM DTT or 1 mM H2O2. The beads were washed 4 times with the lysis buffer before the addition of boiling Laemmli sample buffer. Bound ASK1 proteins were resolved on SDS-PAGE and detected by Western blot with anti-HA.
Hydrogen peroxide dissociates wild type Trx but not Trx-C32S or Trx-C35S from ASK1 in vitro. Association of ASK1 with various Trx proteins - Trx-WT, Trx-CS, Trx-C32S or Trx-C35S in the presence of 1 mM DTT or H202 in an in vitro GST pull-down assay. Bacteria-expressed GST-Trx proteins were purified and protein concentrations were determined by SDS-PAGE (FIG. 2A). […] ASK1 bound to GST-Trx was determined by Western blot with anti-HA.

ASK1 [2] = assay: Association of Trx with ASK1 in vivo in BAEC (co-immunoprecipitation); format: binding, Bovine; details: for association of Flag-Trx with HA-ASK1 after TNF treatment: TNF 10 ng/ml for 15 min; for binding of Flag-Trx to HA-ASK1: resting EC, co-immunoprecipitation
Protocol: Immunoprecipitation and immunoblotting EC after various treatments were washed twice with cold PBS and lysed in 1.5 ml of cold lysis buffer (50 mM Tris-HC, pH 7.6, 150 mM NaCl, 0.1% Triton X-100, 0.75% Brij 96, 10 μg/ml aprotinin, 10 μg/ml leupeptin, 2 mM PMSF, 1 mM EDTA) for 20 min on ice. Protein concentrations were determined with a Bio-Rad kit. For immunoprecipitation to analyze protein interaction in vivo, 400 μg of cell lysate supematant were incubated with 5 μg of the first protein-specific antiserum (e.g. anti-Trx from Medical & Biological Laboratory) for 2 h with 50 μl of GammaBind plus Sepharose. Immune complexes were collected after each immunoprecipitation by centrifugation at 14,000× g for 10 min followed by 4 washes with lysis buffer. The immune complexes were subjected to Western blot with the second protein (e.g., ASK1)-specific antibody (Santa Cruz Biotech, Santa Cruz, Calif.). The chemiluminescence was detected using an ECL kit according to the instructions of the manufacturer (Amersham Life Science, Arlington Heights, Ill.). For Flag-tagged and HA-tagged proteins, anti-Flag M2 antibody (Sigma) and anti-HA antibody (Roche Diagnostics) were used, respectively.
TNF dissociates wild type Trx but not Trx-C32S or Trx-C35Sfroin ASK1 in vivo. Trx-C32S and Trx-C35S were examiner to determine whether they constitutively bind to ASK1 in vivo. Regulation of ASK1 by Trx was first examined to determine if such regulation is ROS-dependent in EC. BAEC were either untreated or treated with N-acetyl-cysteine (Nac, 1 mM) or vehicle for 60 min prior to TNF-α (10 ng/ml) stimulation for 15 min. TNF-induced ASK1 activation was measured by an in vitro kinase assay using GST-MKK4 (JNKK1) fusion protein as a substrate. TNF activated ASK1 in EC (FIG. 5A). […] Association of ASK1 with Trx was easily detected in untreated EC cells (FIG. 5B, Ctrl). […] In contrast, Nac pretreatment prevented TNF-induced dissociation of ASK1 from Trx. Similar results were obtained in human EC (HUVEC).
To examine association of Trx mutants with ASK1 in vivo, the Flag-tagged Trx construct (WT, CS, C32S or C35S) was co-transfected with HA-ASK1 into BAEC and the interaction of these Trx proteins with ASK1 were examined by co-immunoprecipitation assay. As expected, Trx-WT, Trx-C32S and Trx-Trx-C35S (but not Trx-CS) bound to ASK1 in resting EC (FIG. 5C).

B1: thioredoxin (protein)
chain: MVKQIESKTAFQEALDAAGDKLVVVDFSATWCGPCKMIKPFFHSLSEKYSNVIFLEVDVDDCQDVASECEVKCMPTFQFFKKGQKVGEFSGANKEKLEATINELV
modifications: Flag tag or GST fusion
notes: Flag-tagged or GST fusion
ASK1 [1]
  ASK1 bound to GST-Trx: bound
  association of GST-Trx with ASK1: disrupted the association
ASK1 [2]
  association of Flag-Trx with HA-ASK1 after TNF treatment: completely dissociated
  binding of Flag-Trx to HA-ASK1: bound to ASK1

B2: Trx-C32S: C32S single mutant of Trx at the catalytic site, SEQ ID NO:2 (protein)
chain: MVKQIESKTAFQEALDAAGDKLVVVDFSATWSGPCKMIKPFFHSLSEKYSNVIFLEVDVDDCQDVASECEVKCMPTFQFFKKGQKVGEFSGANKEKLEATINELV
ASK1 [1]
  ASK1 bound to GST-Trx: bound
  association of GST-Trx with ASK1: retained their associations with ASK1
ASK1 [2]
  association of Flag-Trx with HA-ASK1 after TNF treatment: not reduced
  binding of Flag-Trx to HA-ASK1: bound to ASK1

B3: Trx-C35S: C35S single mutant of Trx at the catalytic site, SEQ ID NO:3 (protein)
chain: MVKQIESKTAFQEALDAAGDKLVVVDFSATWCGPSKMIKPFFHSLSEKYSNVIFLEVDVDDCQDVASECEVKCMPTFQFFKKGQKVGEFSGANKEKLEATINELV
ASK1 [1]
  ASK1 bound to GST-Trx: bound
  association of GST-Trx with ASK1: retained their associations with ASK1
ASK1 [2]
  association of Flag-Trx with HA-ASK1 after TNF treatment: not reduced
  binding of Flag-Trx to HA-ASK1: bound to ASK1
